US20190022211A1 (CELLTRION, published 2019)
Several values for one entry are separate records, joined by “and”; a condition that tells them apart may be missing. Equal entries are not always repeated.

Experiments:
Experiment in all cases: cell-based or functional assay
[1] = target: G protein of rabies virus AZ Bat (Bat, Arizona), on virus (rabies virus)
[2] = target: G protein of rabies virus TX SK 4384 (Skunk, Texas, USA), on virus (rabies virus)
[3] = target: G protein of rabies virus AK FX (Arctic Fox, Alaska, USA), on virus (rabies virus)
[4] = target: G protein of rabies virus Gray FX-AZ (AZ fox) (Gray Fox, Arizona, USA), on virus (rabies virus)
[5] = target: G protein of rabies virus RVHN (Human (ex, wolf), Russia, Arctic), on virus (rabies virus)
[6] = target: G protein of rabies virus TN-269 (Bat, Tennessee, USA), on virus (rabies virus)
[7] = target: G protein of rabies virus TN410 (Bat, Tennessee, USA), on virus (rabies virus)
[8] = target: G protein of rabies virus Dog Arg (Dog, Argentina), on virus (rabies virus)
[9] = target: G protein of rabies virus RAC (Raccoon, Georgia, USA), on virus (rabies virus)
[10] = target: G protein of rabies virus Mongoose PR (Mongoose, Puerto-Rico), on virus (rabies virus)
[11] = target: G protein of Wu ABLV (Australian bat lyssa, Genotype 7), on virus (Australian bat lyssa, Genotype 7)
[12] = target: G protein of ABV (SM 4476) (Australian bat lyssa, Genotype 7), on virus (Australian bat lyssa, Genotype 7)
[13] = target: G protein of Duvenhage (Genotype 4), on virus (Duvenhage, Genotype 4)
[14] = target: G protein of EBLV 1 A09-3485 (Genotype 5), on virus (EBLV 1, Genotype 5)
[15] = target: G protein of rabies virus Bat Ef (Bat, Pennsylvania, USA), on virus (rabies virus)
[16] = target: G protein of rabies virus C1434 (Bat, Alabama, USA), on virus (rabies virus)
[17] = target: G protein of rabies virus VA 399 (Bat, Virginia, USA), on virus (rabies virus)
[18] = target: G protein of rabies virus TN 132 (Bat, Tennessee, USA), on virus (rabies virus)
[19] = target: G protein of rabies virus TXFX (Gray fox, TX), on virus (rabies virus)
[20] = target: G protein of rabies virus 857r (Raccoon dog, Russia, Far East), on virus (rabies virus)
[21] = target: G protein of rabies virus NC SK (Skunk, Wisconsin, USA), on virus (rabies virus)
[22] = target: G protein of rabies virus MI1625 (Bat, Tennessee, USA), on virus (rabies virus)
[23] = target: T1, G protein of rabies virus ERA, on virus (rabies virus, UniProt P03524 20-524)
T1 sequence: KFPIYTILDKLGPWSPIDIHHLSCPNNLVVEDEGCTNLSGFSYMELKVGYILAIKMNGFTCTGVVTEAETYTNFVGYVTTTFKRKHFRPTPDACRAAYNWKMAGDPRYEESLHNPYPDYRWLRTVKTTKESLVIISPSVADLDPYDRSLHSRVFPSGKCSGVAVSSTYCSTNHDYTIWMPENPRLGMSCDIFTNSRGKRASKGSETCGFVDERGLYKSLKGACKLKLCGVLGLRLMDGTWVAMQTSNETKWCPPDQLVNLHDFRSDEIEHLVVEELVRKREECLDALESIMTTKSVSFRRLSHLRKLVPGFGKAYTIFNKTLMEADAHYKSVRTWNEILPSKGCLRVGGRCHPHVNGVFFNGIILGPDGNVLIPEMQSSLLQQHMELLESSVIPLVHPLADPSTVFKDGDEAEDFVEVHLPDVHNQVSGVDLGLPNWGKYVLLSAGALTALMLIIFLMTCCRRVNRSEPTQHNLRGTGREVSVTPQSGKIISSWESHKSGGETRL

[24] = target: G protein of rabies virus WA Bat (Bat, Washington, USA), on virus (rabies virus)

B1: antibody 1 (antibody, V domains shown)
VH: VQLLQESGPGLAKPSETLSLICTVSGGSISRRRDYWGWIRQPPGRGLEWIGSFFHRGSTYYNPSLESRVSISVDPSKNQFSLHLSSVTVADTAVYYCARHPSTPFAEYLLLPDAFDSWGQGTLVTVSS
VL: DIVMTQSPATLSVSPGERATLSCRASQSVRSSLAWYQQRPGQAPRLLISGASTRATDIPARLSGSGSGTEFTLTVSSLQSEDFAVYYCQQYSDWPLTFGGGTKVEIKR
neutralizing activity (RFFIT) [1]: 1.1 IU/mL and 1090 IU/mg | neutralizing activity (RFFIT), Titer [1]: 125 | neutralizing activity (RFFIT) [2]: 1070 IU/mg and 0.21 IU/mL | neutralizing activity (RFFIT), Titer [2]: 75 | neutralizing activity (RFFIT) [3]: 0.44 IU/mL and 2220 IU/mg | neutralizing activity (RFFIT), Titer [3]: 60 | neutralizing activity (RFFIT) [4]: 0.53 IU/mL and 2670 IU/mg | neutralizing activity (RFFIT), Titer [4]: 16 | neutralizing activity (RFFIT) [5]: 0.4 IU/mL and 2000 IU/mg | neutralizing activity (RFFIT), Titer [5]: 54 | neutralizing activity (RFFIT) [6]: 1.16 IU/mL and 5800 IU/mg | neutralizing activity (RFFIT), Titer [6]: 145 | neutralizing activity (RFFIT) [7]: 0.51 IU/mL and 2530 IU/mg | neutralizing activity (RFFIT), Titer [7]: 19 | neutralizing activity (RFFIT) [8]: 0.36 IU/mL and 1810 IU/mg | neutralizing activity (RFFIT), Titer [8]: 145 | neutralizing activity (RFFIT) [9]: 0.7 IU/mL and 3520 IU/mg | neutralizing activity (RFFIT), Titer [9]: 95 | neutralizing activity (RFFIT) [10]: 0.39 IU/mL and 1930 IU/mg | neutralizing activity (RFFIT), Titer [10]: 54 | neutralizing activity (RFFIT) [11]: 0.38 IU/mL and 1920 IU/mg | neutralizing activity (RFFIT), Titer [11]: 250 | neutralizing activity (RFFIT) [12]: 0.4 IU/mL and 2000 IU/mg | neutralizing activity (RFFIT), Titer [12]: 54 | neutralizing activity (RFFIT) [13]: 0.44 IU/mL and 2200 IU/mg | neutralizing activity (RFFIT), Titer [13]: 13 | neutralizing activity (RFFIT) [14]: 1.85 IU/mL and 9260 IU/mg | neutralizing activity (RFFIT), Titer [14]: 50 | neutralizing activity (RFFIT) [15]: 1.05 IU/mL and 5260 IU/mg | neutralizing activity (RFFIT), Titer [15]: 50 | neutralizing activity (RFFIT) [16]: 0.51 IU/mL and 2530 IU/mg | neutralizing activity (RFFIT), Titer [16]: 19 | neutralizing activity (RFFIT) [17]: 0.56 IU/mL and 2780 IU/mg | neutralizing activity (RFFIT), Titer [17]: 10 | neutralizing activity (RFFIT) [18]: 2 IU/mL and 10000 IU/mg | neutralizing activity (RFFIT), Titer [18]: 56 | neutralizing activity (RFFIT) [19]: 0.41 IU/mL and 2070 IU/mg | neutralizing activity (RFFIT), Titer [19]: 56 | neutralizing activity (RFFIT) [20]: 2.8 IU/mL and 2800 IU/mg | neutralizing activity (RFFIT), Titer [20]: 56 | neutralizing activity (RFFIT) [21]: 2.24 IU/mL and 2240 IU/mg | neutralizing activity (RFFIT), Titer [21]: 280 | neutralizing activity (RFFIT) [22]: 0.39 IU/mL and 1960 IU/mg | neutralizing activity (RFFIT), Titer [22]: 11 | neutralizing activity (RFFIT) [23]: 0.36 IU/mL and 1790 IU/mg | neutralizing activity (RFFIT), Titer [23]: 50 | neutralizing activity (RFFIT) [24]: 2.2 IU/mL and 2160 IU/mg | neutralizing activity (RFFIT), Titer [24]: 270

B2: antibody 2 (antibody, V domains shown)
VH: EVQLVESGAEVKKPGASVKVSCKASGYTFTSYDISWVRQAPGQGLEWMGWISTYKGNTNFAQKFQDRVTLTTDTSTTTAYMELRSLTSDDTAVYYCARAKSHPFYDFWSAYYVPGAFDIWGQGTVVTVSS
VL: not shown
neutralizing activity (RFFIT) [1]: 11.3 IU/mL and 11300 IU/mg | neutralizing activity (RFFIT), Titer [1]: 1300 | neutralizing activity (RFFIT) [2]: 3570 IU/mg and 0.71 IU/mL | neutralizing activity (RFFIT), Titer [2]: 250 | neutralizing activity (RFFIT) [3]: 2 IU/mL and 10000 IU/mg | neutralizing activity (RFFIT), Titer [3]: 270 | neutralizing activity (RFFIT) [4]: 5.67 IU/mL and 28300 IU/mg | neutralizing activity (RFFIT), Titer [4]: 170 | neutralizing activity (RFFIT) [5]: 0.31 IU/mL and 1560 IU/mg | neutralizing activity (RFFIT), Titer [5]: 42 | neutralizing activity (RFFIT) [6]: 3.12 IU/mL and 15600 IU/mg | neutralizing activity (RFFIT), Titer [6]: 390 | neutralizing activity (RFFIT) [7]: 5.33 IU/mL and 26700 IU/mg | neutralizing activity (RFFIT), Titer [7]: 200 | neutralizing activity (RFFIT) [8]: 0.43 IU/mL and 2120 IU/mg | neutralizing activity (RFFIT), Titer [8]: 170 | neutralizing activity (RFFIT) [9]: 1.07 IU/mL and 5370 IU/mg | neutralizing activity (RFFIT), Titer [9]: 145 | neutralizing activity (RFFIT) [10]: 0.4 IU/mL and 2000 IU/mg | neutralizing activity (RFFIT), Titer [10]: 56 | neutralizing activity (RFFIT) [11]: 0.68 IU/mL and 3380 IU/mg | neutralizing activity (RFFIT), Titer [11]: 440 | neutralizing activity (RFFIT) [12]: 1.56 IU/mL and 7780 IU/mg | neutralizing activity (RFFIT), Titer [12]: 210 | neutralizing activity (RFFIT) [13]: 7.2 IU/mL and 36000 IU/mg | neutralizing activity (RFFIT), Titer [13]: 180 | neutralizing activity (RFFIT) [14]: 6.67 IU/mL and 33300 IU/mg | neutralizing activity (RFFIT), Titer [14]: 180 | neutralizing activity (RFFIT) [15]: 1.05 IU/mL and 5260 IU/mg | neutralizing activity (RFFIT), Titer [15]: 50 | neutralizing activity (RFFIT) [16]: 0.96 IU/mL and 4800 IU/mg | neutralizing activity (RFFIT), Titer [16]: 36 | neutralizing activity (RFFIT) [17]: 2.78 IU/mL and 13900 IU/mg | neutralizing activity (RFFIT), Titer [17]: 50 | neutralizing activity (RFFIT) [18]: 10 IU/mL and 50000 IU/mg | neutralizing activity (RFFIT), Titer [18]: 280 | neutralizing activity (RFFIT) [19]: 1.85 IU/mL and 9260 IU/mg | neutralizing activity (RFFIT), Titer [19]: 250 | neutralizing activity (RFFIT) [20]: 2.7 IU/mL and 2700 IU/mg | neutralizing activity (RFFIT), Titer [20]: 54 | neutralizing activity (RFFIT) [21]: 2.16 IU/mL and 2160 IU/mg | neutralizing activity (RFFIT), Titer [21]: 270 | neutralizing activity (RFFIT) [22]: 2.5 IU/mL and 12500 IU/mg | neutralizing activity (RFFIT), Titer [22]: 70 | neutralizing activity (RFFIT) [23]: 1.79 IU/mL and 8930 IU/mg | neutralizing activity (RFFIT), Titer [23]: 250 | neutralizing activity (RFFIT) [24]: 2 IU/mL and 2000 IU/mg | neutralizing activity (RFFIT), Titer [24]: 250
